Assay [1] deals with T1, biotin labeled soluble human SIRPα v1 ECD recombinant protein (human, UniProt P78324 31-373, biotin labeled).
T1 construct: extracellular domain
As to the kind of experiment: competitive ELISA, biotin-SIRPα v1 ECD to coated CD47 ECD. The protocol: Competitive ELISA assay was used to determine whether the purified hybridoma antibodies can block CD47 and SIRPα interaction or CD47 and SIRPγ interaction. Briefly, for CD47 and SIRPα interaction blocking activity detection, antibody and biotin labeled soluble human SIRPα v1 ECD recombinant protein were co-incubated with ELISA microplate coated human CD47 ECD recombinant protein.
For CD47 and SIRPγ interaction blocking activity detection, antibody and biotin labeled soluble human CD47 ECD recombinant protein were co-incubated with ELISA microplate coated human SIRPγ ECD recombinant protein. After washing, horseradish peroxidase labeled streptavidin (HRP-SA, Sigma) was added and incubated at 37° C. for 1 hour. Then, 100 μl/well of TMB solution (Biotechnology) was added. After incubation for 15 minutes at room temperature, the reaction was stopped by the addition of 50 μl of 1N HCl. OD 450 nm was read. Blocking ratio and IC₅₀ was calculated. In comparison with other known anti-SIRPα antibodies, 022, 050, 055, and 074 cannot block CD47 and SIRPα interaction. In particular, all of the antibodies of the invention cannot block CD47 and SIRPγ interaction.
In general terms: An ELISA detects its analyte on a solid surface through an enzyme-linked reagent.

Assay [2] has as its target T1, biotin labeled soluble human SIRPα v1 …. Description: competitive ELISA; competitor 050. Summed up: (§1)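 Excess competitor antibody co-incubated with biotinylated SIRPα v1 ECD on antibody-coated plates; bound protein detected with HRP-SA (37 °C, 1 h) and TMB (15 min, room temperature), stopped with 1N HCl, OD 450 nm read. Competition ratio calculated for epitope binning.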

In assay [3] the target is T2, full length C57BL/6 mouse SIRPα stably expressed on CHOK1 cells (mouse (C57BL/6), UniProt P97797 32-513).
T2 construct: whole, on cells; also called CHOK1-C57BL/6 mouse SIRPα-2.22 cells
T2 sequence (looked up): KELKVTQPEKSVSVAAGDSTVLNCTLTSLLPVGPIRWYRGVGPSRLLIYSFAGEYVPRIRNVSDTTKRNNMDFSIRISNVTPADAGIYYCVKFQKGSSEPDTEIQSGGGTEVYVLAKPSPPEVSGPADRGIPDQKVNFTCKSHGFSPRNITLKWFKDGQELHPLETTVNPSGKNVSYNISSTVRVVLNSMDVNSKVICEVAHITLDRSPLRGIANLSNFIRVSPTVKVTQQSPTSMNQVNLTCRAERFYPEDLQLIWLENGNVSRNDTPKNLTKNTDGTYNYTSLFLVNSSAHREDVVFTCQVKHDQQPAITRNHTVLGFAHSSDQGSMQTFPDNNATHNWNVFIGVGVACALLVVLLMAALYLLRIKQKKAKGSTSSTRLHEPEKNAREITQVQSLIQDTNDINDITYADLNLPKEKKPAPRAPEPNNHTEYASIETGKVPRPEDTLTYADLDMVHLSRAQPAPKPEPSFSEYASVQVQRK
As to the kind of experiment: FACS on CHOK1 cells.

For assay [4], the target named is T1, biotin labeled soluble human SIRPα v1 …. Description: competitive ELISA; competitor 29-AM4-5. Summed up:
as §1

A value given as a limit tells only on which side of the number the result lay.

T1 sequence (P78324 31-373): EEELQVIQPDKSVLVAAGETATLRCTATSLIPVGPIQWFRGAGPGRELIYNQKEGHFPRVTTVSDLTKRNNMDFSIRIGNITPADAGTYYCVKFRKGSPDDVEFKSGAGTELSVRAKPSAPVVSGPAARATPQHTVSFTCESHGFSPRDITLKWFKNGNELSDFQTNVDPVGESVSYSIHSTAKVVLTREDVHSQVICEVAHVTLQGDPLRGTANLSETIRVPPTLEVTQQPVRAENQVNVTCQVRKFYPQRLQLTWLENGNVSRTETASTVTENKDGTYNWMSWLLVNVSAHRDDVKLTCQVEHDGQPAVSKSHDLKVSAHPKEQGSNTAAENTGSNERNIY

B1: Antibody 060 (hybridoma antibody) (antibody, V domains shown)
VH: QVQLKESGPGLVAPSESLSITCTVSGFSLTNYDISWIRQSPGKGLEWLGVIWTGGDTNFNSAFMSRLSISKDKSKSQVFLKLNSLQTDDTAIYYCVRVQYFGGSYGPMDYWGQGISVTVSS
VL: DIQMTQASSYLSVSLGGRVTITCEASDHINDWLAWYQQTPGNAPRLLISGATSLETGVPSRFSGSGSGKDYTLSITSLQTEDIATYYCQQYWNTPLTFGAGTRLELK
notes: mouse hybridoma antibody
In the case of B1, in assay [1], the IC50 (as a rule, the concentration at which inhibition is half-maximal) was > 1000 nM. Also, the “% Competition” value in assay [2] was 14%; in assay [4] it was -5%. In assay [3], the binding result was “no binding (tested: 100 nM)”.
